The supplement of paper PMC9170038

System: MS2 coat protein
Assay: apparent KD of MS2 coat protein; higher = weaker reporter binding
Conditions: Eterna round: R107
Procedure, shortened: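 Each design's apparent KD comes from the median of binding-curve fits to its normalised clusters. Those clusters carried RNA switches transcribed on-chip from Illumina sequencing clusters. SNAP-549-labelled MS2 coat protein was titrated onto them in twofold steps (0.7 or 1.5 nM to 3 µM; per step 0.8–1.5 h down to 10–20 min). Conditions were 100 mM Tris-HCl pH 7.5, 80 mM KCl, 4 mM MgCl2, without or with constant ligand.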

[1] = input ligand: theophylline 20 uM
[2] = input ligand: theophylline 2 mM
[3] = input ligand: tryptophan 2.4 mM

Sequence | apparent KD of MS2 coat protein (input ligand: arginine 13.2 mM) [nM] | apparent KD of MS2 coat protein [1] [nM] | apparent KD of MS2 coat protein [2] [nM] | apparent KD of MS2 coat protein (input ligand: none) [nM] | apparent KD of MS2 coat protein [3] [nM]
AUCUUUGACGAUCUGGGAAAACCAGAUCGGCGAGGACCGGUACGGCCGCCACUCGUGUAUAAUAUACAUGAGGAUCACCCAUGUA [#19 Tryptophan A Same State] | 27.3 | 61.3 | 53.9 |  | 
CUUGAUAACUGAAGGAGCGAGAAACCCUACAUGAGGAUCACCCAUGUAUACACGGGAACUUCUCAGGUAGGUCGCAGUAUGUCAA [Teveor] | 90.6 | 89.3 | 165 | 54.4 | 71.5
AGUACACGAACUGAUACCAGCCGGACAUGAGGAUCACCCAUGUCCUACCUCUGUUCGGUUGGCCCUUGGCAGCAGUUCGUGUACA [Omei Theo B SS A v9] | 40.5 | 391 |  |  | 76.2
CUAUAAUAUAGAAGGAGCGUCGAAAAUGGGUAAACAUGAGGAUCACCCAUGUAAAGGGAACGACAGGUAGGUCGCUAUAUUAUAG [AstromonsSSArgB#12] | 181 | 237 | 305 | 228 | 223
GUUGGACUUUCGGCCGCCACUGAGAGAGUCAUGUGAACAUGAGGAUCACCCAUGUAAUAUAUAUACAGGACCGGGAGGGUUGUAA [4.M] | 11.7 | 22 | 13.9 |  | 
AUACAUGAGGAUCACCCAUGUGAUGGCCGGCGAGGACCGGUACGGCCGCCACUCGUGAUCCGUCCCGAGAGCAAAGCUCUCGACA [Raatala] | 4.9 | 436 | 1080 | 53.7 | 50.3
GUAACACAUGAGGAUCACCCAUGUUCCGAUACCAGUAUUGAAGAUUACCCUUGGCAGCGGGUAGGUCGGAGUGGACGGCCCGAGC [theeternabot_sameState_MS2_Theo_A_8] | 17.9 | 25 |  |  | 23.7
GUAUGGAAACAUACUAGGGUAUCAUGAGAUACCAGUACAGAAAUGUACCCUUGGCAGCUCUAGCAUACAUGAGGAUCACCCAUGU [Ex Theophylline A 6] | 15.4 | 20 |  |  | 12
ACAUGAGGAUCACCCAUGUUCCUCAUUGAUACCAGUGAAUUUAGACGCCCUUGGCAGCGAGUUUUUUUAUAAGAUGUUUUUUUUU [6.H] | 244 | 829 |  |  | 1040
AAUUAUCAGUCGGCCGCCACUGACACAUGAGGAUCACCCAUGUAAUAUGGGUAAAAUUAACUGAACAGGACCGGGACAAAUGCUA [JR_SSTryptoB_Sub021] | 135 | 472 | 803 |  | 
UGUAACAUGAGGAUCACCCAUGUGAGUGAUACCAGAUAAGUAGUAGUCCCUUGGCAGCAUAUUGGGCGAGUGUAUAGUCUAUGCG [Same State - Theophylline A (Freestyle 9)] | 125 | 207 |  |  | 152
AGUCUUAAAGGAAGGAGCGCAGUCAUAACAUGAGGAUCACCCAUGUCGAUGUGAGGGUCAUUGCAGGUAGGUCGCCUUACUAAGA [Same State - Arginine B (Freestyle 5)] | 22.8 | 46 | 30.2 | 40.4 | 40.6
AAGAAGUUUUGAUUUUUAUGAAGUAGUGAUACCAGUCAAGAAAGAGACCCUUGGCAGCGCAACAUGAGGAUCACCCAUGUAAGAA [A random design] | 26.2 | 26.7 |  |  | 24.2
AUGUCGUUGAAUAUAGCGGCUUGGUGUGAUACCAGAAUGAUCUAAUUCCCUUGGCAGCAUUACAUGAGGAUCACCCAUGUUUAGG [SSTheo A #19] | 24.4 | 29.6 |  |  | 28.8
AGUGUUGUCUGAAGGAGCGGCCCUUGAUCCUCAUGAGACAUGAGGAUCACCCAUGUCUCGGGCCAGGUAGGUCGCAGGCAUCACA [Omei Arg B SS v1] | 22.6 | 34.1 | 23.3 | 20.5 | 23.7
